Patent US20020012945A1, “METHOD AND REAGENT FOR THE DETECTION OF APOPTOTIC CELLS AND OF A PROTEASE ACTIVATED DURING APOPTOSIS” (priority 1998, published 2002)
* marks the point of attachment. Dnp = O=[N+]([O-])c1ccc(*)c([N+](=O)[O-])c1; Mca = COc1ccc2c(CC(=O)*)cc(=O)oc2c1

Assays:
caspase 3 [1] = assay: Caspase 3 activation in camptothecin-treated U937 cells, antibody capture and Ac-DEVD-AFC cleavage; type: cell-based, human; settings: U937 5×10^5 cells/ml, 4 μg/ml camptothecin, after 2 h
Procedure: In order to induce apoptosis in a cellular system, human cells (U937; human histiolytic lymphoma […]) were treated with camptothecin (Topoisomerase I inhibitor, chemotherapeutic agent). […] In order to detect the protease activated by apoptosis (caspase 3), ca. 10^6 cells were withdrawn from the treated cell culture and lysed in lysis buffer (50 mM NaPO4, 10 mM NaCl, 1 mM […], 0.25% (w/v) Nonidet P40, 0.3 mM EDTA; pH 7.8) on ice. The lysate is then contacted with an antibody directed against caspase 3 which is coupled to a solid phase and binds caspase 3 from the lysate for the specific caspase 3 analysis. After removing the supernatant (contains all unspecific components and enzymes), a substrate (50 μM Ac-DEVD-AFC) is added and its caspase 3 mediated substrate conversion is measured by the formation of the fluorescent coumarin cleavage product. After subtraction of the blank value (self fluorescence of the substrate without lysate addition), the kinetic course of the caspase 3 activity can be shown graphically (FIG. 1).

caspase 3 [2] = molecular target: T1, caspase 3 (Homo sapiens, UniProt P42574); assay: Selection of the optimal fluorescent substrate; type: biochemical
T1 construct: endogenous in cells; host or cells: cell lysates with and without camptothecin induction (cell model U937/CAM)
T1 sequence (P42574 29-175 limits assumed): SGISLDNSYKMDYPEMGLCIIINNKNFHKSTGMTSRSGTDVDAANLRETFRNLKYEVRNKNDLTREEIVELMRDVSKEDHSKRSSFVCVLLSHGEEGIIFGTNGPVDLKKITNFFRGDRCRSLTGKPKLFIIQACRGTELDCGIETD
T1 sequence (P42574 176-277 limits assumed): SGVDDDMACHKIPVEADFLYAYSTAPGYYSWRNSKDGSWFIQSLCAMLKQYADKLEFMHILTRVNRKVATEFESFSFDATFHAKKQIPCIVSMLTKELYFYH
Procedure: Three fluorescent substrates were tested. They are acetyl-Asp-Glu-Val-Asp-7-amido-4-trifluoromethyl-coumarin (AFC), acetyl-Asp-Glu-Val-Asp-7-amido-4-methyl-coumarin (AMC) and (7-methoxycoumarin-4-yl)acetyl-Asp-Glu-Val-Asp-Ala-Pro-Lys(2,4-dinitrophenyl)OH (Mca). The three substrates were compared with one another using the assessment criteria i) background ii) signal level and iii) signal ratio from ± induction.

Row | Molecule | protease activity (caspase 3) (caspase 3 [1]) | signal level (caspase 3 [2]) | signal ratio from ± induction (caspase 3 [2]) | background (self-fluorescence of the substrate without lysate addition) (caspase 3 [2])
1 | CC[C@@]1(O)C(=O)OCc2c1cc1n(c2=O)Cc2cc3ccccc3nc2-1 [camptothecin] | increase of protease activity |  |  | 
2 | (7-methoxycoumarin-4-yl)acetyl-Asp-Glu-Val-Asp-Ala-Pro-Lys(2,4-dinitrophenyl)OH (Mca-DEVDAPK(Dnp)-OH; SMILES COc1ccc2c(CC(=O)N[C@@H](CC(=O)O)C(=O)N[C@@H](CCC(=O)O)C(=O)N[C@H](C(=O)N[C@@H](CC(=O)O)C(=O)N[C@@H](C)C(=O)N3CCC[C@H]3C(=O)N[C@@H](CCCCNc3ccc([N+](=O)[O-])cc3[N+](=O)[O-])C(=O)O)C(C)C)cc(=O)oc2c1) |  | low signal levels | somewhat better ratio | 
3 | acetyl-Asp-Glu-Val-Asp-7-amido-4-methyl-coumarin [AMC] |  | highest signals |  | relatively high
4 | acetyl-Asp-Glu-Val-Asp-7-amido-4-trifluoromethyl-coumarin [AFC] |  | very good signal yield | optimal ratio | 
